Values quoted from earlier work in PMC11858487.
pKd: −log10 of the molar value.

Biological target: EGFR (Homo sapiens) (UniProt P00533)

pKd: 7.12
Substance: [99mTc]Tc-SYPIPDT-ECG-TAMRA
